These results are taken from patent publication US20140248273A1 (published 2014).

The target in the assay is His-tagged SSL3 (S. aureus strain NCTC 8325), with the pRSETB N-terminal tag carrying the Xpress epitope (Staphylococcus aureus strain NCTC 8325, UniProt Q2G0X7 31-356). The experiment in a line: ELISA, coated extracellular domain of mouse TLR2 (FIG. 5A).

B1: recombinant extracellular domain of mouse TLR2 (receptor)
chain: QESLSCDASGVCDGRSRSFTSIPSGLTAAMKSLDLSFNKITYIGHGDLRACANLQVLILKSSRINTIEGDAFYSLGSLEHLDLSDNHLSSLSSSWFGPLSSLKYLNLMGNPYQTLGVTSLFPNLTNLQTLRIGNVETFSEIRRIDFAGLTSLNELEIKALSLRNYQSQSLKSIRDIHHLTLHLSESAFLLEIFADILSSVRYLELRDTNLARFQFSPLPVDEVSSPMKKLAFRGSVLTDESFNELLKLLRYILELSEVEFDDCTLNGLGDFNPSESDVVSELGKVETVTIRRLHIPQFYLFYDLSTVYSLLEKVKRITVENSKVFLVPCSFSQHLKSLEFLDLSENLMVEEYLKNSACKGAWPSLQTLVLSQNHLRSMQKTGEILLTLKNLTSLDISRNTFHPMPDSCQWPEKMRFLNLSSTGIRVVKTCIPQTLEVLDVSNNNLDSFSLFLPRLQELYISRNKLKTLPDASLFPVLLVMKIRENAVSTFSKDQLGSFPKLETLEAGDNHFVCSCELLSFTMETPALAQILVDWPDSYLCDSPPRLHGHRLQDARPSVLECHQ
notes: extracellular domain; also called mTLR2
B1: the binding result is “binds”.
